# Data as given in doi:10.1101/2020.12.15.422995.
# T1: Fur (PerR homolog), 17.4 kDa (Bacillus subtilis, UniProt P54574 1-149)
# T1 sequence: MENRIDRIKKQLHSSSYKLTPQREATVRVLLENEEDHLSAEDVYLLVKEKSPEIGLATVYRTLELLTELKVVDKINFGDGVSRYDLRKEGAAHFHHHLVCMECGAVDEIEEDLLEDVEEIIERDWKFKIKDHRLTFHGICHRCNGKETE
# B1: 54-bp degenerate sloR promoter (Deg_sloR_CC1) (dsDNA)
# DNA 1: CCTGATAGGATGATGGATAATTAAGGCTTTTATCCACTTTTTACTGACATTTTG
# DNA 2: CAAAATGTCAGTAAAAAGTGGATAAAAGCCTTAATTATCCATCATCCTATCAGG
# Molecular target: T1, Fur (PerR homolog), 17.4 kDa
# Experiment: EMSA
binder,measurement,value
B1,binding signal,63 % band shift at 60 nM Fur (relative to 400 nM)
